From article PMC11021519, “Niche Tet maintains germline stem cells independently of dioxygenase activity” (The EMBO Journal, 2024)

B1: Strep-Bap55 (natural protein, Drosophila, UniProt Q7K012 1-425, looked up)
chain: MSGGTMLYGGDEIGALVFDPGHHSLRVGYAQEDSPKAEIPSVVGIGAAPETNLDPETKTDNNATPNNADQRKFYVDTNYVTVPRSNMEVQTYMKDGMIDNWDLFEKVIDYAYANVIQSEPEYHPVLFSEASWNVRNNREKLTELMFEKYNVPAFFLVKNAVLAAFSSGRATALVVDSGATHTSAVPVHEGYVLSQAVVKSPLGGDFLSRQCRQHLEKHGIDLSPVYKIASKDVVKERDNGRFTLRKLPENLTQSWQNYMLQLMMQDFQMNVLQVLENPFDERVAAQIPTVHYEFPNGYHQDFGSERFKIAESLFDNAMLGAGQLASTSVGMCDADVRLSLFGSVVVTGGNTLLQGFPERLNRDLQLRAPSNTRLKMISANGSVERRFGAWIGGSILASIGTFQQMWISSQEYEEAGKSQVERKCP
notes: Drosophila Bap55, full-length Bap55-PA; pFastBac-HTB vectors usually also add an N-terminal His6 tag; source: insect cells (baculovirus), purified (Strep-Tactin XT, Superdex 200)
B2: HA-Stat92E (natural protein, Drosophila, UniProt Q24151 1-761, looked up)
chain: MSLWKRISSHVDCEQRMAAYYEEKGMLELRLCLAPWIEDRIMSEQITPNTTDQLERVALKFNEDLQQKLLSTRTASDQALKFRVVELCALIQRISAVELYTHLRSGLQKELQLVTEKSVAATAGQSMPLNPYNMNNTPMVTGYMVDPSDLLAVSNSCNPPVVQGIGPIHNVQNTGIASPALGMVTPKVELYEVQHQIMQSLNEFGNCANALKLLAQNYSYMLNSTSSPNAEAAYRSLIDEKAAIVLTMRRSFMYYESLHEMVIHELKNWRHQQAQAGNGAPFNEGSLDDIQRCFEMLESFIAHMLAAVKELMRVRLVTEEPELTHLLEQVQNAQKNLVCSAFIVDKQPPQVMKTNTRFAASVRWLIGSQLGIHNNPPTVECIIMSEIQSQRFVTRNTQMDNSSLSGQSSGEIQNASSTMEYQQNNHVFSASFRNMQLKKIKRAEKKGTESVMDEKFALFFYTTTTVNDFQIRVWTLSLPVVVIVHGNQEPQSWATITWDNAFAEIVRDPFMITDRVTWAQLSVALNIKFGSCTGRSLTIDNLDFLYEKLQREERSEYITWNQFCKEPMPDRSFTFWEWFFAIMKLTKDHMLGMWKAGCIMGFINKTKAQTDLLRSVYGIGTFLLRFSDSELGGVTIAYVNENGLVTMLAPWTARDFQVLNLADRIRDLDVLCWLHPSDRNASPVKRDVAFGEFYSKRQEPEPLVLDPVTGYVKSTLHVHVCRNGENGSTSGTPHHAQESMQLGNGDFGMADFDTITNFENF
notes: Drosophila Stat92E, full-length isoform Stat92E-PF; source: bacteria (E. coli), pET32a(+), purified (Ni-NTA); not shown: HA, N-terminal, kept

Molecular target: T1, Myc-Tet-C (Drosophila, UniProt M9NEY8-5 1846-2921)
T1 construct: Drosophila Tet, C-terminal domain, aa1846-2921 of Tet-PF (FBpp0306013); also called C-terminal domain of Tet; source: bacteria (E. coli), pET32a(+), purified (Ni-NTA); not shown: Myc, N-terminal, kept
Assay: pull-down; in vitro binding of two purified proteins (10 μg of each), overnight at 4 °C in Buffer A (50 mM Tris-HCl pH 7.5, 50 mM NaCl, 5% glycerol, 1 mM EDTA, 0.1% Igepal CA-630) with Dynabeads Protein G and 5 μg antibody (anti-HA, anti-Myc or anti-Strep); six washes; immunoblot
Conditions: both partners purified

T1 sequence (M9NEY8 1785-2860): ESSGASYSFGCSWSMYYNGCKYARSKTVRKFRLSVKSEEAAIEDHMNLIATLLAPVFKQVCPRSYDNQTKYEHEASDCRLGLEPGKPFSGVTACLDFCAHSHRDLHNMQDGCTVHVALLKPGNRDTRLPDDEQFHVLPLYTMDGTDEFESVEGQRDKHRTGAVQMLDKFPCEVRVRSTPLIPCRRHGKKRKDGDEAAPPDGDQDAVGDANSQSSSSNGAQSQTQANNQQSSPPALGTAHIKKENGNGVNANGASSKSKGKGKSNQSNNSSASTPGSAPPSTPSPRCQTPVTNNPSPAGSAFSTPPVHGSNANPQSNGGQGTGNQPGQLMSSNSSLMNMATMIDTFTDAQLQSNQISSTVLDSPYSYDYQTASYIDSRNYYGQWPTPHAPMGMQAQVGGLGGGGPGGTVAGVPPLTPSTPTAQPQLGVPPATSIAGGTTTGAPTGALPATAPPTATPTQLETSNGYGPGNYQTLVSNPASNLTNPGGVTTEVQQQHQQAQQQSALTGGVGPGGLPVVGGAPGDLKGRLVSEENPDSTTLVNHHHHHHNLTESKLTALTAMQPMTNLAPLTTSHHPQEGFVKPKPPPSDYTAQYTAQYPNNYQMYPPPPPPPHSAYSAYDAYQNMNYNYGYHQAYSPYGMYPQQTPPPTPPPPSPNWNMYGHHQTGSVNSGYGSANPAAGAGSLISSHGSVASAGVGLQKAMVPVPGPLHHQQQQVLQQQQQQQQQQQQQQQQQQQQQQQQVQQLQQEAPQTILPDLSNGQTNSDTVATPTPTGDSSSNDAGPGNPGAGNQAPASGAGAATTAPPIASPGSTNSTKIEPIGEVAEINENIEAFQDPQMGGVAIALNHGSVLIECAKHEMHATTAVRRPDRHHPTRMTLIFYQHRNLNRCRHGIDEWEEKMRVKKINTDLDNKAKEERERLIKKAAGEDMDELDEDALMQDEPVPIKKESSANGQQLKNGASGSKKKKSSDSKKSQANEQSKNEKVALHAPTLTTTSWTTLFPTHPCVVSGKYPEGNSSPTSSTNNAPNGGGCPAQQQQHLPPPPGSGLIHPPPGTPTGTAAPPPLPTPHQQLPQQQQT

Binder | binding result
B1 | binds
B2 | binds
